Measurements: patent US20250368753A1
Substitutions are numbered along the chain they refer to.

What was measured:
[1] = target: proprotein convertase subtilisin/kexin type 9 (PCSK9) (human) (UniProt Q8NBP7); experiment: DELFIA immunoassay (PerkinElmer Cat. #1244-330) on PCSK9
[2] = target: proprotein convertase subtilisin/kexin type 9 (PCSK9) (human) (UniProt Q8NBP7); experiment: DELFIA immunoassay (PerkinElmer Cat. #1244-330), full-length IgG on PCSK9
[3] = target: proprotein convertase subtilisin/kexin type 9 (PCSK9) (human) (UniProt Q8NBP7); experiment: PCSK9 biochemical disruption assay (BPS Biosciences Cat. #72010); antibody disrupts PCSK9 binding to LDL-R
[4] = target: proprotein convertase subtilisin/kexin type 9 (PCSK9) (human) (UniProt Q8NBP7); experiment: PCSK9 biochemical disruption assay (BPS Biosciences Cat. #72010); antibody disrupts PCSK9 binding to LDL-R; positive signal but IC50 not reached at the concentrations tested

UniProt Q8NBP7, sequence (Q8NBP7 other isoform, or with tags, fused parts or gaps limits assumed): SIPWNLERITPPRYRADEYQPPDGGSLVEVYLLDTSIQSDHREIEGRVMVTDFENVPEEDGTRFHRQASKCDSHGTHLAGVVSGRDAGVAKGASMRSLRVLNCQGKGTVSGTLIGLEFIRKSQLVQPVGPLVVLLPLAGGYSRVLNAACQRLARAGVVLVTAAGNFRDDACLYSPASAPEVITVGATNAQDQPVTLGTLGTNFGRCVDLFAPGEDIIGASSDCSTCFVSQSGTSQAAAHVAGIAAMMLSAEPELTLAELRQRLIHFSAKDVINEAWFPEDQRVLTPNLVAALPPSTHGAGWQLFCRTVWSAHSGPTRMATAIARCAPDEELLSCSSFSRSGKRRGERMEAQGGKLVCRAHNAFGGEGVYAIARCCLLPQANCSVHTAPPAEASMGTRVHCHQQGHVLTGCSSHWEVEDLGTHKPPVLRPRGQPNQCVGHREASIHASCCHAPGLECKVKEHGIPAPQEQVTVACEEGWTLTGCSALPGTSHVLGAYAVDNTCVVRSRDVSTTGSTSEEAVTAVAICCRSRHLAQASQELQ

Molecule: Control (antibody)
- Relative Binding to PCSK9 Measured by DELIFA Immunoassay [1]: 5.2

B1: Reference Antibody (antibody, V domains shown)
VH: QVQLVQSGAEVKKPGASVKVSCKASGYTFTSYYMHWVRQAPGQGLEWMGEISPFGGRTNYNEKFKSRVTMTRDTSTSTVYMELSSLRSEDTAVYYCARERPLYASDLWGQGTTVTVSS
VL: DIQMTQSPSSLSASVGDRVTITCRASQGISSALAWYQQKPGKAPKLLIYSASYRYTGVPSRFSGSGSGTDFTFTISSLQPEDIATYYCQQRYSLWRTFGQGTKLEIK
- Relative Binding to PCSK9 Measured by DELIFA Immunoassay [2]: 6.6
- IC50 [3]: 20 nM

B2: AB-9 (antibody, V domains shown)
VH: B1 VH with S52K, F54S, R57T, T58S, E99D, A104Y, L107V
VL: B1 VL with S31G, A32S, R91Y, L94N, W95Y, R96W
- IC50 [4]: > 53 nM
- Relative Binding to PCSK9 Measured by DELIFA Immunoassay [2]: 3.9

B3: AB-10 (antibody, V domains shown)
VH: B1 VH with S52L, F54S, S105M, L107V
VL: B1 VL with L94V, W95A, R96L
- Relative Binding to PCSK9 Measured by DELIFA Immunoassay [2]: 4.3
- IC50 [3]: 20.1 nM

B4: AB-11 (antibody, V domains shown)
VH: B1 VH with T28S, S52D, P53L, F54S, R57S, E62Q, K65Q, S105F, L107V
VL: B1 VL
- Relative Binding to PCSK9 Measured by DELIFA Immunoassay [2]: 2.4
- IC50 [3]: 20.8 nM

B5: AB-1 (antibody, V domains shown)
VH: B1 VH with S52L, F54G, R57T, E62Q, R100S, L107I
VL: B1 VL with S31T, R54L
- Relative Binding to PCSK9 Measured by DELIFA Immunoassay [2]: 1.8
- IC50 [3]: 18.4 nM

B6: AB-2 (antibody, V domains shown)
VH: B1 VH with E50W, S52E, S105M, L107V
VL: B1 VL with S31G, W95S
- Relative Binding to PCSK9 Measured by DELIFA Immunoassay [2]: 3.1
- IC50 [3]: 17.2 nM

B7: AB-3 (antibody, V domains shown)
VH: B1 VH with Y33W, S52D, F54S, R57S, E62Q, K65Q, L107V
VL: B1 VL
- Relative Binding to PCSK9 Measured by DELIFA Immunoassay [2]: 2.8
- IC50 [3]: 16.1 nM

B8: AB-4 (antibody, V domains shown)
VH: B1 VH with S52R, F54S, R57S, E99D, A104S, S105M, L107V
VL: B1 VL with R91H, L94S, W95S, R96W
- IC50 [4]: > 53 nM
- Relative Binding to PCSK9 Measured by DELIFA Immunoassay [2]: 2.9

B9: AB-5 (antibody, V domains shown)
VH: B1 VH with Y33W, F54S, R57S, S105M, L107V
VL: B1 VL
- Relative Binding to PCSK9 Measured by DELIFA Immunoassay [2]: 4.3
- IC50 [3]: 18.9 nM

B10: AB-6 (antibody, V domains shown)
VH: B1 VH with R57T, A104S, L107V
VL: B1 VL with R54L, T56S, R96Y
- Relative Binding to PCSK9 Measured by DELIFA Immunoassay [2]: 1.8
- IC50 [3]: 16.5 nM

B11: AB-7 (antibody, V domains shown)
VH: B1 VH with S52F, F54S, L102F
VL: B1 VL with Y53N, R54L
- Relative Binding to PCSK9 Measured by DELIFA Immunoassay [2]: 2
- IC50 [3]: 18.1 nM

B12: AB-8 (antibody, V domains shown)
VH: B1 VH with S52L, F54S, S105M, L107I
VL: B1 VL with L94T
- Relative Binding to PCSK9 Measured by DELIFA Immunoassay [2]: 2.9
- IC50 [3]: 18.4 nM
